In US20210317213A1 (AMBRX, published 2021):
Where a chain is given by its changes, count along the chain named.

What was measured:
human CD3 [1] = biological target: T1, human CD3 (human, UniProt P07766 23-207); assay: cell binding, human PBMC
T1 construct: whole, on cells; also called CD3 on human T-cells

human CD3 [2] = biological target: T1, human CD3; assay: cell binding, human T-cells; design: Bmax: unit not given here
cyno CD3 [3] = biological target: T2, cyno CD3 (cyno (cynomolgus monkey), UniProt Q95LI5 22-198); assay: cell binding, cynomolgus T-cells
T2 construct: whole, on cells; also called CD3 on Cynomolgus T-cells

cyno CD3 [4] = biological target: T2, cyno CD3; assay: cell binding, activated cyno PBMC
[5] = biological target: Folate receptor-alpha (FOLR1) (human) (UniProt P15328); assay: summary table; FRα affinity over CD3 affinity
human CD3 [6] = biological target: T1, human CD3; assay: cell binding, activated human PBMC
[7] = biological target: Folate receptor-alpha (FOLR1) (human) (UniProt P15328); assay: summary table; cell binding through the folate moiety
human CD3 [8] = biological target: T1, human CD3; assay: cell binding, human CD3, 50 nM SFA present
human CD3 [9] = biological target: T1, human CD3; assay: summary table; cell binding EC50, human PBMC
cyno CD3 [10] = biological target: T2, cyno CD3; assay: cell binding, activated cyno PBMC; E. coli protein
human CD3 [11] = biological target: T1, human CD3; assay: cell binding, activated human PBMC; E. coli protein
[12] = biological target: Folate receptor-alpha (FOLR1) (human) (UniProt P15328); assay: cell binding, FOLRα-expressing KB cells; through the folate moiety
cyno CD3 [13] = biological target: T2, cyno CD3; assay: cell binding, cyno CD3 (activated cyno PBMC); cyno CD3 (second number of the cell)
Method: (§1) Testing for CD3 binding with activated human and cyno PBMC: To distinguish between the humanized anti-CD3 antibodies generated, binding to human CD3 was tested using activated human PBMCs (n=2). The activation of PBMCs and subsequent fluorescence-based CD3 binding assays were followed as described previously (see for example, Angew Chem Int Ed Engl, 52(46):12101-12104, 2013). […] The binding of the remaining 6 humanized antibodies to both human and cyno CD3 using activated human and cyno PBMCs, respectively, was titrated. […] The six (6) humanized anti-CD3 antibodies were obtained as follows: Fab1, Fab2 and Fab3 wildtype were generated by combination of LC ((vL1.2+CL); (SEQ.ID. NO:7)) and HC ((vH1.2+CH1); (SEQ.ID. NO:1)), ((vH1.1+CH1); (SEQ.ID. NO:2)) and ((vH1.0+CH1); (SEQ.ID. NO:3)) respectively. Fab4, Fab 5 and Fab6 wildtype were generated by combination of LC ((vL1.1+CL); (SEQ.ID. NO:8)) and HC ((vH1.2+CH1); (SEQ.ID. NO:1)), ((vH1.1+CH1); (SEQ.ID. NO:2)) and ((vH1.0+CH1); (SEQ.ID. NO:3)) respectively.
(§2) Binding of Folate-conjugated Fabs to human and cyno CD3: Binding of E. coli produced and Folate-conjugated low-affinity variants of humanized anti-CD3 Fabs was performed as described in the above Examples.

human CD3 [14] = biological target: T1, human CD3; assay: cell binding, human CD3 (activated human PBMC); human CD3 (first number of the cell)
Method: as §1, §2

[15] = biological target: Folate receptor-alpha (FOLR1) (human) (UniProt P15328); assay: cell binding, SKOV-3 cells with 50 nM SFA; through the folate moiety; SKOV-3 cells, with 50 nM SFA; binding through the conjugated folate
Folate receptor beta = Folate receptor beta (human, UniProt P14207 17-230); assay: cell-based or functional assay
[16] = biological target: Folate receptor-alpha (FOLR1) (human) (UniProt P15328); assay: cell binding, SKOV-3 cells with 50 nM SFA; through the folate moiety
human CD3 [17] = biological target: T1, human CD3; assay: cell binding, human PBMC, 20 nM SFA present
human CD3 [18] = biological target: T1, human CD3; assay: cell binding, human T-cells; assigned to the Bi5KPEG-BiFolate / BiFolate pair from Table 37
human CD3 [19] = biological target: T1, human CD3; assay: cell binding, activated human PBMC; remark: listed apart in the source
cyno CD3 [20] = biological target: T2, cyno CD3; assay: flow cytometry (MFI) titration on cyno CD3 (activated cyno PBMC), HEK293 culture supernatant
Method: (§3) Screening for human and cyno CD3 binding: HEK293 culture supernatants were directly used to test for binding to human CD3 in the screening phase. In Round 1 experiment, initially 35 clones were tested for binding to human CD3 at three different protein concentrations, and 13 were selected for detailed binding assays to both human and cyno CD3. An 11-point binding titration curve was generated to both human (FIG. 4A) and cyno CD3 (FIG. 4B) for each clone. […] Similarly, 43 clones were screened in Round 2 experiment. After two-stage screening as described above for Round 1, 11 low-affinity variants were obtained, of which 4 are represented as shown in FIGS. 5A-5B

human CD3 [21] = biological target: T1, human CD3; assay: flow cytometry (MFI) titration on human CD3 (activated human PBMC), HEK293 culture supernatant
Method: as §3

human CD3 [22] = biological target: T1, human CD3; assay: flow cytometry (MFI), 11-point titration on human CD3 (activated human PBMC), HEK293 culture supernatant
Method: as §3

cyno CD3 [23] = biological target: T2, cyno CD3; assay: flow cytometry (MFI), 11-point titration on cyno CD3 (activated cyno PBMC), HEK293 culture supernatant
Method: as §3

human CD3 [24] = biological target: T1, human CD3; assay: flow cytometry (MFI) on activated human PBMC, Fab in HEK293 culture medium, concentration not shown
Method: as §1

T2 sequence (Q95LI5 22-198): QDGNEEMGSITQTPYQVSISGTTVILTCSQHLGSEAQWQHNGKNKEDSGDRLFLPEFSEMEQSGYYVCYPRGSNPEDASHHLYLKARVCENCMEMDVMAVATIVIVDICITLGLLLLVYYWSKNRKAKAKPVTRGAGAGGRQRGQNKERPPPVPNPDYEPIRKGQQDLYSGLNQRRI
T1 sequence (P07766 23-207): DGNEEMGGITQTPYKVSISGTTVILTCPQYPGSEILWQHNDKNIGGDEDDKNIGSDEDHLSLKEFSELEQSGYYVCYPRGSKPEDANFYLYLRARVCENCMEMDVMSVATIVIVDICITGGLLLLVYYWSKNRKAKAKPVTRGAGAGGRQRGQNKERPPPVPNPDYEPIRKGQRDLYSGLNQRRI
Sequence of Folate receptor-alpha (FOLR1) (human) (P15328 25-234): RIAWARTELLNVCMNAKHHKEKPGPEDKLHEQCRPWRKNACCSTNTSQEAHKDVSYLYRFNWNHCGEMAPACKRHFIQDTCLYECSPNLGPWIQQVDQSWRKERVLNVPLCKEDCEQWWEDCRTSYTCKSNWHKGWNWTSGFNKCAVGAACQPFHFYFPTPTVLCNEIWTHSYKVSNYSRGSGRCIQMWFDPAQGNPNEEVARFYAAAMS
Sequence of Folate receptor beta (P14207 17-230): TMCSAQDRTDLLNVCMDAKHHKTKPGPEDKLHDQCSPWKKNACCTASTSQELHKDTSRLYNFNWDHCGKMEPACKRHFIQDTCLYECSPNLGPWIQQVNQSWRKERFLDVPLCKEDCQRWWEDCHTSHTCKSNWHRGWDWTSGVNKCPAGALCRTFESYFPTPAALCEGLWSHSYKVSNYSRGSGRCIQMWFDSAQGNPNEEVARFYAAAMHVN

B1: Fab1-HK129-Folate (Fab, V domains shown)
VH: EVQLVESGGGLVQPGGSLRLSCAASGFTFNTYAMNWVRQAPGKGLEWVARIRSKYNNYATYYADSVKDRFTISRDDSKNILYLQMNSLKTEDTAVYYCVRHGNFGNSYVSWFAYWGQGTLVTVSS
VL: QAVVTQEPSLTVSPGGTVTLTCRSSTGAVTTSNYANWVQQKPGQAPRGLIGGTNKRAPGTPARFSGSLLGGKAALTLSGAQPEDEAEYYCALWYSNLWVFGGGTKLTVLG
modifications: pAF at HK129 (Kabat) conjugated to folate (oxime)
notes: From E. coli; also called Folate lead; parent control
- EC50 (human CD3 [1]): 2.45 nM
- Bmax (human CD3 [2]): 30100
- Kd (human CD3 [2]): 1.53 nM
- Bmax (cyno CD3 [3]): 25700
- Kd (cyno CD3 [3]): 2.69 nM
- EC50 (cyno CD3 [4]): 1.41 nM
- Affinity ratio (FRα:CD3) [5]: 35
- EC50 (human CD3 [6]): 2.78 nM
- FRα binding affinity [7]: 59.6 nM
- EC50 (human CD3 [8]): 2 nM
- CD3 binding affinity (human CD3 [9]): 1.69 nM
- EC50 (cyno CD3 [10]): 2.05 nM
- EC50 (human CD3 [11]): 1.69 nM
- Bmax [12]: 101000
- Kd [12]: 1.97 nM
- EC50 (cyno CD3 [13]): 3.3 nM
- EC50 (human CD3 [14]): 2.31 nM
- EC50 [15]: 44.5 nM

B2: Fab1-HK129-LL157-5KPEG-Folate (Fab, V domains shown)
VH: B1 VH
VL: B1 VL
modifications: pAF at LL157 (Kabat); 5K PEG-folate conjugated, and the label does not say at one site or both; pAF at HK129 (Kabat); 5K PEG-folate conjugated, and the label does not say at one site or both
- IC50, killing of human M2 macrophages with human T-cells, 50 nM folic acid (Folate receptor beta): 0.112 nM

B3: Fab1-HK129-LL157-BiFolate (Fab, V domains shown)
VH: B1 VH
VL: B1 VL
modifications: pAF at LL157 (Kabat) conjugated to folate (oxime); pAF at HK129 (Kabat) conjugated to folate (oxime)
notes: From E. coli; carries two folates
- EC50 (human CD3 [1]): 1.93 nM
- Fold increase binding (vs Fab1-HK129-Folate) (human CD3 [1]): 1.3 fold
- Bmax (human CD3 [2]): 24600
- Kd (human CD3 [2]): 0.669 nM
- Bmax (cyno CD3 [3]): 19600
- Kd (cyno CD3 [3]): 1 nM
- Affinity ratio (FRα:CD3) [5]: 10
- FRα binding affinity [7]: 19.8 nM
- EC50 (human CD3 [8]): 2.37 nM
- CD3 binding affinity (human CD3 [9]): 1.93 nM
- Bmax [12]: 74400
- Kd [12]: 0.85 nM
- EC50 [16]: 19.8 nM
- Fold increase binding (vs Fab1-HK129-Folate) [16]: 2.2 fold

B4: Fab1-HK129-LL157-Folate (Fab, V domains shown)
VH: B1 VH
VL: B1 VL
modifications: pAF at LL157 (Kabat); folate conjugated, and the label does not say at one site or both; pAF at HK129 (Kabat); folate conjugated, and the label does not say at one site or both
- IC50, killing of human M2 macrophages with human T-cells, 50 nM folic acid (Folate receptor beta): 0.0012 nM

B5: Fab10-HK129-LL157-BiFolate-Bi5KPEG (Fab, V domains shown)
VH: B1 VH with N30S
VL: B1 VL with V38F, T60V
modifications: pAF at LL157 (Kabat) conjugated to a bifunctional linker carrying folate and 5K PEG (oxime); pAF at HK129 (Kabat) conjugated to a bifunctional linker carrying folate and 5K PEG (oxime)
- EC50 (human CD3 [17]): 6310 nM

B6: Fab1-HK129-LL157-BiFolate-Bi5KPEG (Fab, V domains shown)
VH: B1 VH
VL: B1 VL
modifications: pAF at LL157 (Kabat) conjugated to a bifunctional linker carrying folate and 5K PEG (oxime); pAF at HK129 (Kabat) conjugated to a bifunctional linker carrying folate and 5K PEG (oxime)
notes: From E. coli; carries two folates and two 5K PEG; also called Fab1-HK129-LL157-Bi5KPEG-BiFolate
- Bmax (human CD3 [2]): 15300
- Kd (human CD3 [2]): 3.34 nM
- Bmax (cyno CD3 [3]): 13200
- Kd (cyno CD3 [3]): 5.01 nM
- EC50 (human CD3 [8]): 7.5 nM
- EC50 (human CD3 [17]): 5.7 nM
- Bmax [12]: 83100
- Kd [12]: 2.28 nM
- fold lower binding affinity (vs the non-pegylated version) (human CD3 [18]): ~5 fold

B7: Fab9-HK129-LL157-BiFolate-Bi5KPEG (Fab, V domains shown)
VH: B1 VH with A49G, I80S
VL: B1 VL with V38F, T60V
modifications: pAF at LL157 (Kabat) conjugated to a bifunctional linker carrying folate and 5K PEG (oxime); pAF at HK129 (Kabat) conjugated to a bifunctional linker carrying folate and 5K PEG (oxime)
- EC50 (human CD3 [17]): 340 nM

B8: Fab20-HK129-Folate (Fab, V domains shown)
VH: B1 VH with N35H
VL: B1 VL with K55N
modifications: pAF at HK129 (Kabat) conjugated to folate (oxime)
- binding result (human CD3 [19]): no binding (tested: 1000 nM)

B9: Fab14 (Fab, V domains shown)
VH: B1 VH with A49G, I80S, V99A
VL: B1 VL with V38F, T60V
notes: distinct from m37 (Fab14-HK129-Folate); also called Fab14 (vH2.5 / vL2.1), wild type from HEK293
- EC50 (read off the curve) (cyno CD3 [20]): ~10 nM
- EC50 (read off the curve) (human CD3 [21]): ~5 nM

B10: Fab9 (vH1.0 / vL2.1), wild type from HEK293 (Fab, V domains shown)
VH: B1 VH with A49G, I80S
VL: B1 VL with V38F, T60V
notes: HEK293 supernatant
- EC50 (read off the curve) (human CD3 [22]): ~10 nM

B11: Fab7 (vH2.3 / vL2.4), wild type from HEK293 (Fab, V domains shown)
VH: B1 VH with V99A
VL: B1 VL with G59W, T60V
notes: HEK293 supernatant
- EC50 (read off the curve) (cyno CD3 [23]): ~2 nM
- EC50 (read off the curve) (human CD3 [22]): ~2 nM

B12: humanized anti-CD3 Fab vH1.0 + vL1.0 (Fab, V domains shown)
VH: B1 VH with A49G, I80S
VL: B1 VL with V38F, G48T, G51Y, G59W
notes: it has no Fab number; HEK293 supernatant; also called antibody with vL1.0 light chain and vH1.0
- binding result (human CD3 [24]): no binding

B13: Fab19-HK129-Folate (Fab, V domains shown)
VH: B1 VH with N35H
VL: B1 VL
modifications: pAF at HK129 (Kabat) conjugated to folate (oxime)
- binding result (human CD3 [19]): no binding (tested: 1000 nM)

B14: humanized anti-CD3 Fab vH1.2 + vL1.0 (Fab, V domains shown)
VH: B1 VH
VL: B1 VL with V38F, G48T, G51Y, G59W
notes: it has no Fab number; HEK293 supernatant; also called antibody with vL1.0 light chain and vH1.2
- binding result (human CD3 [24]): no binding

B15: Fab8 (vH2.2 / vL2.1), wild type from HEK293 (Fab, V domains shown)
VH: B1 VH with A49G
VL: B1 VL with V38F, T60V
notes: HEK293 supernatant
- EC50 (read off the curve) (cyno CD3 [23]): ~6 nM

B16: Fab11-HK129-Folate (Fab, V domains shown)
VH: B1 VH with N30S, A49G, I80S
VL: B1 VL with V38F, G48T, G51Y, G59W
modifications: pAF at HK129 (Kabat) conjugated to folate (oxime)
- binding result (human CD3 [19]): no binding (tested: 1000 nM)

B17: Fab1 wildtype (vH1.2+CH1 / vL1.2+CL), humanized anti-CD3 SP34 (Fab, V domains shown)
VH: B1 VH
VL: B1 VL
notes: also called Fab1-WT; vH1.2+vL1.2
- EC50 (cyno CD3 [10]): 0.75 nM
- EC50 (human CD3 [11]): 0.93 nM
- EC50 (read off the curve) (cyno CD3 [20]): ~2 nM
- EC50 (read off the curve) (human CD3 [21]): ~0.8 nM
- EC50 (read off the curve) (cyno CD3 [23]): ~0.6 nM
- EC50 (read off the curve) (human CD3 [22]): ~0.7 nM

B18: humanized anti-CD3 Fab vH1.1 + vL1.0 (Fab, V domains shown)
VH: B1 VH with I80S
VL: B1 VL with V38F, G48T, G51Y, G59W
notes: it has no Fab number; HEK293 supernatant; also called antibody with vL1.0 light chain and vH1.1
- binding result (human CD3 [24]): no binding
